Key:
streptavidin = biological target: T1, streptavidin (UniProt P22629 37-163, limits assumed); assay: ELISA, soluble Fab on streptavidin-coated control well without peptide
T1 construct: control well without peptide
Procedure: (§1) The wells of a microtiter plate were coated with 200 ng streptavidin protein in 100 μL Coating Buffer (0.1 M NaHCO₃, pH 8.6), and then incubated overnight at 4° C. For negative control, the wells were coated with PBS to determine non-specific binding. After shaking out the coating solution, the wells were washed three times with washing buffer (0.1% Tween 20-PBS). To prevent non-specific binding, 200 μL Blocking Buffer (3% BSA-PBS) was adding and incubated for 2 h at 37° C. After shaking out the blocking buffer, the wells were incubated with 50 ng biotinylated target peptide (SEQ ID NO: 420; see Example 10) in 100 μL Blocking Buffer for 1 h at 37° C. The control well was incubated with only 100 μL Blocking Buffer for 1 h at 37° C. After shaking out the biotinylated target peptide or buffer solution, the wells were washed 3 times with the washing buffer (0.1% Tween 20-PBS). Then 100 μL supernatant containing soluble Fab were added and incubated for 2 h at 37° C. Following three washes with washing buffer (0.1% Tween 20-PBS) for 3 times, 100 μL/well HRP conjugate of mouse anti-Flag tag mAb (Sigma A8592, 1:5000) diluted in Blocking Buffer were added and incubated for 1 h at 37° C. After washings, 3,3′,5,5′-tetramethylbenzidine (TMB) (Sigma) were added for 5 to 30 min at room temperature. The reaction was stopped by adding 50 μL/well of 1 M H₂SO₄.

[1] = biological target: T2, biotinylated CCR8 peptide (human, N-terminal biotin); assay: ELISA, soluble Fab on biotinylated CCR8 peptide captured on streptavidin
T2 construct: first 34 residues of human CCR8 plus a C-terminal K; also called biotinylated target peptide
Procedure: as §1

human CCR8 = human CCR8 (human, UniProt P51685 1-355); assay: cell-based or functional assay

T1 sequence (P22629 37-163 limits assumed): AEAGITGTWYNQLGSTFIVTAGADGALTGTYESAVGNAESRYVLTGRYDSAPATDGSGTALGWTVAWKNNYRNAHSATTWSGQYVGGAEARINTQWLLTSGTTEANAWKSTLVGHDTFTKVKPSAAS

Binder | Optical Density (streptavidin) | Optical Density [1] | ADCC % Max lysis, NK cells Donor 3 (human CCR8) | ADCC % Max lysis, NK cells Donor 4 (human CCR8) | ADCC EC50, NK cells Donor 3 (human CCR8) | ADCC EC50, NK cells Donor 4 (human CCR8)
3-61 (Fab, V domains shown, soluble Fab from phage display library huFabL-4, Flag tag) VH: QVQLVESGAEVKKPGASVKVSCKASGYTFTSYYMHWVRQAPGQGLEWMGIINPSGGGTKYAQSLQGRVTMTRDTSTSTVYMELNSLTSEDTAVYYCARGGTPSGLDYWGKGTLVTVSS VL: DIQMTQSPSSLSASVGDRVTITCRASQGISNYLAWYQQKPGKVPKLLIYAASTLQSGVPSRFSGSGSGTDFTLTISSLQPEDVATYYCQKYNSAPLTFGGGTKVEIKR | 0.06 OD450 | 2.43 OD450 | – | – | – | –
3-68 (Fab, V domains shown, soluble Fab from phage display library huFabL-4, Flag tag) VH: QVQLQQSGPGLVKPSQTLSLTCAISGDSVSRNTAAWNWIRQSPSRGLEWLGRTYYRSKWYNDYAVSVKSRITIRPDTSKNQISLQLTSVTPEDTAVYYCARGVHNAFDIWGRGTMVTVSS VL: ETTLTQSPGTLSLSPGERATLSCRASQSVGNRYLAWYQQKPGQAPRLLIYGASSRATGIPDRFSGSGSGTDFTLTISRLEPEDFAVYYCQQYSGSTGYTFGQGTKLEIKR | 0.06 OD450 | 3.64 OD450 | – | – | – | –
3-54 (Fab, V domains shown, soluble Fab from phage display library huFabL-4, Flag tag) VH: QVQLVQSGAEVKKPGASVKVSCKASGYTFSGYYIHWVRQAPGQGLEWMGWINPNSGGTNYAQNFQGRVTMTRDTSISTAYMELSRLRSDDTAMYYCARGNGAMDVWGRGTLVTVSS VL: DVVMTQSPLSLPVTSGKPASISCRSSQSLLHSNGYNYLDWYLQKPGQSPQLLIYLGSNRASGVPDRFSGSGSGTDFTLKISRVEAEDVGVYYCMQGTYWPRTFGQGTKVEIKR | 0.08 OD450 | 2.76 OD450 | – | – | – | –
3-71 (Fab, V domains shown, soluble Fab from phage display library huFabL-4, Flag tag) VH: QVQLQESGGGLVKPGRSLRLSCTASGFTFSSYAMSWVRQAPGKGLEWVSVNSGSGGTTYYADSVKGRFTISRDNAKNTLYLQMNSLRAEDTAVYYCARVSRYYDILTGYVYAFDIWGKGTLVTVSS VL: QSVVTQPPSVSAAPGQKVSISCSGSSSNIGKNYVSWYQQLPGTAPKLLIYDNNKRPSGIPDRFSGSKSGTSATLGITGLQAEDEADYYCQSYDRSLGVVFGGGTKLTVLG | 0.08 OD450 | 2.4 OD450 | – | – | – | –
3-75 (Fab, V domains shown, soluble Fab from phage display library huFabL-4, Flag tag) VH: not shown VL: LPMLTQPPSVSGTPGQRVTISCSGSTSNIGSRPVNWYQQLPGTAPKLLIYRNYQRPSGVPDRFSGSKSGTSASLAISGLRSEDEADYYCAAWDDSLSGWVFGGGTKLTVLG | 0.08 OD450 | 3.67 OD450 | – | – | – | –
3-62 (Fab, V domains shown, soluble Fab from phage display library huFabL-4, Flag tag) VH: QVQLQQSGPGLVKPSQTLSLTCAISGDSVSNNSAAWNWIRQSPSRGLEWLGRTYYRSKWYTDYAVSVKSRITINPDTSKNQFSLQLNSVTPEDTAVYYCARASGYSSGQVEYWGKGTLVTVSS VL: QSVLTQPPSVSAAPGQKVTISCSGSSSNIGNNYISWYQQVPGTAPKLLIYGNNKRPSGIPARFSGSKSGTSATLDITGLQIGDEADYYCGTWESSLRAVVFGGGTKLTVLG | 0.07 OD450 | 3.6 OD450 | – | – | – | –
3-105 (antibody) heavy: QVQLVETGGGLVRPGNSLKLSCVTSGFTFSNYRMHWLRQPPGKRLEWIAVIKVKSDNYGANYAESVKGRFTISRDDSKSSVYLQVNRLREEDTATYYCSSPTYPGSSGFAYWGQGTLVTVSAASTKGPSVFPLAPSSKSTSGGTAALGCLVKDYFPEPVTVSWNSGALTSGVHTFPAVLQSSGLYSLSSVVTVPSSSLGTQTYICNVNHKPSNTKVDKKVEPKSCDKTHTCPPCPAPELLGGPDVFLFPPKPKDTLMISRTPEVTCVVVDVSHEDPEVKFNWYVDGVEVHNAKTKPREEQYNSTYRVVSVLTVLHQDWLNGKEYKCKVSNKALPLPEEKTISKAKGQPREPQVYTLPPSRDELTKNQVSLTCLVKGFYPSDIAVEWESNGQPENNYKTTPPVLDSDGSFFLYSKLTVDKSRWQQGNVFSCSVMHEALHNHYTQKSLSLSPG light: DIQMTQTTSSLSASLGDRVTISCRASQDISNYLNWYQQKPDGTVKLLIYYTSRLHSGVPSRFSGSGSGTDYSLTISNLEQEDIATYFCQQGNKFPPTFGGGTKLEINRTVAAPSVFIFPPSDEQLKSGTASVVCLLNNFYPREAKVQWKVDNALQSGNSQESVTEQDSKDSTYSLSSTLTLSKADYEKHKVYACEVTHQGLSSPVTKSFNRGEC | – | – | 25% | 30% | 0.00822 nM | 0.0489 nM
3-56 (Fab, V domains shown, soluble Fab from phage display library huFabL-4, Flag tag) VH: EVQLVQSGGGVVQPGRSLRLSCAASGFTFSTYGMHWVRQAPGKGLEWVAVISYDGSKKYYADSVKGRFTISRDNSRNTVYLQMDSLRSEDTAVYYCAKDLSWPVRRLDVWGKGTMVTVSS VL: EIVLTQSPLSLPVTLGQPASISCRSSQSLVYSTGNTYLNWFHQRPGQSPRRLIYQVSNRDSGVPDRFSGSGSGTDFTLKISRVEADDVGVYYCMQGTHWPPTFGQGTKVEIKR | 0.08 OD450 | 2.35 OD450 | – | – | – | –
3-59 (Fab, V domains shown, soluble Fab from phage display library huFabL-4, Flag tag) VH: GVQLVQSGGGLVQPGGSLRLSCAASGFTFSSYSMNWVRQAPGKGLEWVAVISYDESNKYYADSVKGRFTISRDNSKNTLYLQMNSLRAEDTAVYYCAPGGSYHDYWGKGTLVTVSS VL: EIVLTQSPLSLPVTLGQPASISCRSSQSLAHSNGNTYLNWFQQRPGQSPRRLIYKVSNRDSGVPDRFSGSGSGTDFTLKISRVEADDVGVYYCMQGSHWPPTFGQGTKVEIKR | 0.06 OD450 | 1.4 OD450 | – | – | – | –
3-67 (Fab, V domains shown, soluble Fab from phage display library huFabL-4, Flag tag) VH: QVQLQQSGPGLVKPSQTLSLTCAISGDSVSSNSAAWNWIRQSPSRGLEWLGRTYYRSKWYNDYAVSVKSRITINPDTSKNQFSLQLNSVTPEDTAVYYCARAARLGMDVWGKGTMVTVSS VL: QSVVTQPPSVSAAPGQKVTISCSGTSFNIGNNYVSWYQQLPGTAPKLLIYDNIRRPSGIPERFSGSKSGTSATLGITGLQTGDEADYYCGTWDSSLRAYVFGTGTKLTVLG | 0.06 OD450 | 2.23 OD450 | – | – | – | –
3-69 (Fab, V domains shown, soluble Fab from phage display library huFabL-4, Flag tag) VH: QVQLQQSGPGLVKPSQTLSLTCAISGDSVSSNSAAWNWIRQSPSRGLEWLGRTYYRSKWYNDYAVSVKSQITINPDTSKNQFSLQLNSVTPEDTAVYYCAREQFSGMDVWGRGTLVTVSS VL: QSVLTQPPSASGTPGQRVTISCSGSSSNIGRNYVYWYQQLPGTAPKLLTDSNNQRPSGVPDRFSASKSGTSASLAISGLRSEDEADYYCAAWDGSLRGRVFGGGTKMTVLG | 0.07 OD450 | 2.67 OD450 | – | – | – | –
3-55 (Fab, V domains shown, soluble Fab from phage display library huFabL-4, Flag tag) VH: QVQLQQSGPGLVKPSQTLSLTCAISGDSVSSSTAAWNWIRLSPSRGLEWLGRTYYRSKWYNDYAVSVKSRINISPDTSKNQFSLQLNSVTPEDTGVYYCARGYSRSMDVWGKGTLVTVSS VL: not shown | 0.07 OD450 | 2.34 OD450 | – | – | – | –
3-74 (Fab, V domains shown, soluble Fab from phage display library huFabL-4, Flag tag) VH: EVQLVQSGGGVVQPGRSLRLSCAASGFTFSNYGMHWVRQAPGKGLEWVAIISDDGSNRYYGDSVKGRFTISRDNSKNTLYLQMNSLRAEDTAVYYCAKSLTTSYYYGMDVWGKGTLVTVSS VL: QSALTQPPSASGSPGQSVTISCTGTSSDIGGYIYVSWYQQHPGKAPKLIIYEVHKRPSGVSNRFSASKSANTASLTISGLQAEDEADYYCSSYSSSRTVLFGGGTKLTVLG | 0.09 OD450 | 2.81 OD450 | – | – | – | –
3-72 (Fab, V domains shown, soluble Fab from phage display library huFabL-4, Flag tag) VH: QVTLKESGGGVVQPGRSLRLSCAASGFTFSSYAMHWVRQAPGKGLEWVAVISYDGSNKYYADSVKGRFTISRDNSKNTLYLQMNSLRAEDTAVYYCASSLLGAFDVWGKGTLVTVSS VL: DVVMTQSPLSLPVTPGEPASISCRSSQSLLHSNGYNYLSWYLQRPGQSPQLLMYLGSKRASGVPDRFSGSGSGTDFTLEISRVEAEDVGIYYCMQALQTPLTFGGGTKVEIKR | 0.09 OD450 | 3.26 OD450 | – | – | – | –
3-60 (Fab, V domains shown, soluble Fab from phage display library huFabL-4, Flag tag) VH: QVQLVQSGGGVVQPGRSLRLSCAASGFTFSSYAMHWVRQAPGKGLEWVAVISYDGSNKYYADSVKGRFTISRDNAKNSLYLQMNSLRAEDTAVYYCAREQAARPTLGAFDIWGKGTTVTVSS VL: DVVMTQSPLSLPVTPGEPASISCRSSQSLLHSNGNNYLAWYLQKPGQSPQLLMYLGSNRASGVPDRFSGSGSGTDFTLKISRVEAEDVGVYYCMQGIHLPLTFGGGTKVEIKR | 0.06 OD450 | 3.66 OD450 | – | – | – | –
3-73 (Fab, V domains shown, soluble Fab from phage display library huFabL-4, Flag tag) VH: QVQLQQSGPGLVKPSQTLSLTCAISGDSVSSSTAAWNWIRQSPSRGLEWLGRTYYRSKWYNDYAVSVKSRITINPDTSKNQFSLQLNSVTPEDTAVYYCARAEAGGRFDYWGQGTLVTVSS VL: not shown | 0.07 OD450 | 2.27 OD450 | – | – | – | –
3-57 (Fab, V domains shown, soluble Fab from phage display library huFabL-4, Flag tag) VH: QMQLVQSGAEVKKPGASVKVSCKASGYTFTSYYMHWVRQAPGQGLEWMGIINPSGGSTSYAQKFQGRVTMTRDTSTSTVYMELSSLRSEDTAVYYCARAGVRGVFGMDVWGKGTLVTVSS VL: QSALTQPASVSGSPGQSITISCTGTSSDLGAYNYVSWYQQHPGKAPRLMIYDVSKRPSGVPDRFSGSKSDNTASLTISGLQAEDEADYYCSSYTSSSTLVFGGGTKVTVLS | 0.1 OD450 | 2.39 OD450 | – | – | – | –

Source: patent US20260234276A1 (DOMAIN THERAPEUTICS, published 2026)
